# Laboratory results published in PMC6993976, “Insulin BBB pharmacokinetics in young apoE male and female transgenic mice” (PLoS ONE, 2020).
# Assays:
# [1] = test system: blood-brain barrier (BBB); parameters: method as in PMID 30044494; details: in vivo; cited from earlier work
# [2] = parameters: species or system mouse (human E3- and E4-targeted replacement mice); details: in vivo
# Method: Mice were anesthetized with an intraperitoneal injection of 0.1 mL 40% urethane to minimize pain and distress. […] We correct for the exact amount of radioactivity injected based on serum levels. […] Blood from the left carotid artery was collected between 0.5–10 min after intravenous injection. Mice were immediately decapitated and their whole brains quickly removed and weighed. The arterial blood was centrifuged at 5400g for 10 min at 4°C and serum collected. The brains were dissected into regions according to the method of [27] and weighed. The levels of radioactivity in serum (50 μL) and brain regions were counted in a gamma counter (Wizard2, Perkin Elmer, Waltham, MA). […] Expt was calculated from the formula: Exposuretime=∫0tCp(t)dt/Cp(t) (1) where Cp is the level of radioactivity (cpm) in serum at time (t). Expt corrects for the clearance of peptide from the blood. […] The influx of insulin was calculated by multiple-time regression analysis as described by Patlak, Blasberg, and Fenstermacher: Am/Cpt=Ki(∫0tCp(t)dt/Cp(t))+Vi (2) where Am is level of radioactivity (cpm) per g of brain tissue at time t, Cpt is the level of radioactivity (cpm) per mL arterial serum at time t, Ki (μL/g-min) is the unidirectional solute influx from blood to brain, and Vi (μL/g) is the level of rapid and reversible binding for the brain vasculature. […]
# [3] = test system: blood-brain barrier (BBB); assay: BBB pharmacokinetic transport of 125I-insulin, multiple-time regression analysis (Ki, Vi); assay type: in vivo, mouse (human E3- and E4-targeted replacement mice); details: for Insulin transport rate Ki / Reversible vascular binding (Vi): n = 7-10 mice/group; for Ki (unidirectional influx from blood to brain) / Vi (reversible vascular binding): whole brain; for Ki (unidirectional influx from blood to brain): multiple-time regression, ± SE
# Method: Mice were anesthetized with an intraperitoneal injection of 0.1 mL 40% urethane to minimize pain and distress. […] We correct for the exact amount of radioactivity injected based on serum levels. […] Blood from the left carotid artery was collected between 0.5–10 min after intravenous injection. Mice were immediately decapitated and their whole brains quickly removed and weighed. The arterial blood was centrifuged at 5400g for 10 min at 4°C and serum collected. The brains were dissected into regions according to the method of [27] and weighed. The levels of radioactivity in serum (50 μL) and brain regions were counted in a gamma counter (Wizard2, Perkin Elmer, Waltham, MA). […] Expt was calculated from the formula: Exposuretime=∫0tCp(t)dt/Cp(t) (1) where Cp is the level of radioactivity (cpm) in serum at time (t). Expt corrects for the clearance of peptide from the blood. […] The influx of insulin was calculated by multiple-time regression analysis as described by Patlak, Blasberg, and Fenstermacher: Am/Cpt=Ki(∫0tCp(t)dt/Cp(t))+Vi (2) where Am is level of radioactivity (cpm) per g of brain tissue at time t, Cpt is the level of radioactivity (cpm) per mL arterial serum at time t, Ki (μL/g-min) is the unidirectional solute influx from blood to brain, and Vi (μL/g) is the level of rapid and reversible binding for the brain vasculature. The brain/serum (B/S) ratios for insulin were corrected for vascular space by subtracting the corresponding ratio for albumin, yielding a delta B/S ratio. The linear portion of the relation between the delta B/S ratio versus Expt was used to calculate the Ki (μL/g-min) with its standard error term, and the y-intercept determined as representation of the Vi (μL/g) for each brain region. For whole brain, the weights and cpm of all individual brain regions except for the olfactory bulb were summed to calculate the B/S ratio. […] All anesthetized mice were killed by decapitation at the end of the study.
# Regression analysis and other statistical analyses were performed with the use of Prism 8.0 (GraphPad Software Inc., San Diego, CA, USA). Brain weight means are reported with their standard error terms and compared by two-way analysis of variance (ANOVA) followed by Sidak’s post hoc test to determine differences due to genotype or sex. […] For pharmacokinetic studies (multiple-time regression analysis), the slope of the linear regression lines (Ki), reported with their correlation coefficients (r), and y-intercepts (Vi) were compared statistically with the Prism 8.0 software package, as described.
# [4] = test system: blood-brain barrier (BBB); details: in vivo; cited from earlier work
# From the text: Our studies are designed to investigate the transfer of human ^125I-insulin from the periphery to the CNS. Rat and human insulin are transported across the BBB at similar rates and are both saturable by excess respective peptide. […] We used the well-described multiple-time regression analysis technique first described by Patlak, Blasberg, and Fenstermacher. This an ...
substance,measurement,setting,value
125I-insulin: Human insulin (Sigma-Aldrich) radioactively labeled with Na125I by the chloramine-T method,Distribution between brain capillary and brain parenchyma,[1],enters the brain parenchyma
same,"Serum clearance rate, slower in males compared to females",[2],> 2 fold
same,Insulin transport rate Ki,"[3]; E3 Female, Cerebellum",1.189 µL/g/min
same,Reversible vascular binding (Vi),"[3]; E3 Female, Cerebellum",8.36 µL/g
same,Insulin transport rate Ki,"[3]; E3 Female, Frontal Cortex",0.796 µL/g/min
same,Reversible vascular binding (Vi),"[3]; E3 Female, Frontal Cortex",4.65 µL/g
same,Insulin transport rate Ki,"[3]; E3 Female, Hippocampus, ns = non-significant transport",ns
same,Insulin transport rate Ki,"[3]; E3 Female, Hypothalamus",1.541 µL/g/min
same,Reversible vascular binding (Vi),"[3]; E3 Male, Parietal Cortex",4.17 µL/g
same,Insulin transport rate Ki,"[3]; E3 Male, Pons/Medulla",0.739 µL/g/min
same,Insulin transport rate Ki,"[3]; E3 Male, Striatum, ns = non-significant transport",ns
same,Insulin transport rate Ki,"[3]; E3 Male, Thalamus, ns = non-significant transport",ns
same,Insulin transport rate Ki,"[3]; E4 Female, Cerebellum",2.110 µL/g/min
same,Reversible vascular binding (Vi),"[3]; E4 Female, Cerebellum",8.91 µL/g
same,Insulin transport rate Ki,"[3]; E4 Female, Frontal Cortex",0.720 µL/g/min
same,Reversible vascular binding (Vi),"[3]; E4 Female, Olfactory Bulb",11.71 µL/g
same,Insulin transport rate Ki,"[3]; E4 Female, Parietal Cortex",0.859 µL/g/min
same,Reversible vascular binding (Vi),"[3]; E4 Female, Parietal Cortex",3.31 µL/g
same,Insulin transport rate Ki,"[3]; E4 Female, Pons/Medulla",1.111 µL/g/min
same,Insulin transport rate Ki,"[3]; E4 Female, Striatum, ns = non-significant transport",ns
same,Insulin transport rate Ki,"[3]; E4 Female, Thalamus",0.634 µL/g/min
same,Insulin transport rate Ki,"[3]; E4 Male, Cerebellum, ns = non-significant transport",ns
same,Insulin transport rate Ki,"[3]; E4 Male, Frontal Cortex",1.023 µL/g/min
same,Reversible vascular binding (Vi),"[3]; E4 Male, Frontal Cortex",5.90 µL/g
same,Insulin transport rate Ki,"[3]; E4 Male, Hippocampus, ns = non-significant transport",ns
same,Insulin transport rate Ki,"[3]; E4 Male, Hypothalamus",2.272 µL/g/min
same,Reversible vascular binding (Vi),"[3]; E4 Male, Hypothalamus",5.63 µL/g
same,Insulin transport rate Ki,"[3]; E4 Male, Midbrain",0.887 µL/g/min
same,Reversible vascular binding (Vi),"[3]; E4 Male, Midbrain",6.38 µL/g
same,Insulin transport rate Ki,"[3]; E4 Male, Occipital Cortex",0.793 µL/g/min
same,Reversible vascular binding (Vi),"[3]; E4 Male, Occipital Cortex",6.71 µL/g
same,Insulin transport rate Ki,"[3]; E4 Male, Olfactory Bulb",1.712 µL/g/min
same,Reversible vascular binding (Vi),"[3]; E4 Male, Olfactory Bulb",13.31 µL/g
same,Insulin transport rate Ki,"[3]; E4 Male, Parietal Cortex",0.920 µL/g/min
same,Reversible vascular binding (Vi),"[3]; E4 Male, Parietal Cortex",4.74 µL/g
same,Insulin transport rate Ki,"[3]; E4 Male, Pons/Medulla, ns = non-significant transport",ns
same,Insulin transport rate Ki,"[3]; E4 Male, Striatum, ns = non-significant transport",ns
same,Insulin transport rate Ki,"[3]; E4 Male, Thalamus",1.203 µL/g/min
same,Reversible vascular binding (Vi),"[3]; E4 Male, Thalamus",4.56 µL/g
same,Ki (unidirectional influx from blood to brain),"[3]; Female E3, iv, albumin-corrected",1.128 ± 0.32 µL/g/min
same,Vi (reversible vascular binding),"[3]; Female E3, y-intercept of multiple-time regression",4.41 ± 2.31 µL/g
same,Ki (unidirectional influx from blood to brain),[3]; Female E4,1.033 ± 0.28 µL/g/min
same,Vi (reversible vascular binding),"[3]; Female E4, y-intercept of multiple-time regression",7.17 ± 2.07 µL/g
same,Vi (reversible vascular binding),"[3]; Female, genotypes Combined",7.84 ± 1.26 µL/g
same,Ki (unidirectional influx from blood to brain),"[3]; Female, genotypes Combined",0.691 ± 0.16 µL/g/min
same,Vi (reversible vascular binding),"[3]; Male E3, y-intercept of multiple-time regression",7.17 ± 0.95 µL/g
same,Ki (unidirectional influx from blood to brain),[3]; Male E4,0.781 ± 0.32 µL/g/min
same,Vi (reversible vascular binding),"[3]; Male E4, y-intercept of multiple-time regression",8.23 ± 2.13 µL/g
same,Vi (reversible vascular binding),"[3]; Male, genotypes Combined",7.88 ± 1.09 µL/g
same,Ki (unidirectional influx from blood to brain),"[3]; Male, genotypes Combined",0.803 ± 0.17 µL/g/min
same,"Whole brain transport rate, average previously observed",[4],0.71 ± 0.17 µL/g/min
